Source: the RNAGym collection of RNA variant scans (doi:10.7554/elife.90254)

B1: LINE1-full (parent)
chain: UACGUAGGUGGUUUUCCCCUGAUAGUGCUAAGGGGGCCUGGAAGUUUGGACUGGGCAGAGCUCAACACAGCGUGGCAAAGUGGCUGUGGCUAGACUGCCUCUCUGGAUUCCUCGUCACUCAGCAGGGCAUCUCUGAGAGAAAUGCC

Variants of: B1
Test: self-cleavage, relative activity (ratio to wild type); higher = more cleavage; in vitro, sequencing; the parent is a self-cleaving ribozyme
C68A gave a self-cleavage of 0.04. Work on C68A C133A yielded a self-cleavage of 0.02. C68A G88A gave a self-cleavage of 0.01. With C68G the self-cleavage was 0.05. C68G U134G gave a self-cleavage of 0.04. C68U showed a self-cleavage of 0.13. In the case of C68U A69G, the self-cleavage is reported as 0.11. Work on C68U A78U yielded a self-cleavage of 0.37. Work on C68U A92G yielded a self-cleavage of 0.05. In the case of C68U A107G, the self-cleavage is reported as 0.12. With C68U A107U the self-cleavage was 0.19. C68U A129C gave a self-cleavage of 0.22. Variant C68U A136G has a self-cleavage of 0.36. With C68U A138G the self-cleavage was 0.17. With C68U G135A the self-cleavage was 0.22. C68U U85A showed a self-cleavage of 0.03. For C68U U85C, the self-cleavage was 0.03. C68U U96C gave a self-cleavage of 0.04. For C68U U104A, the self-cleavage was 0.03. C68U U130C showed a self-cleavage of 0.19. Work on C68U U132C yielded a self-cleavage of 0.25. C68U U134A gave a self-cleavage of 0.18. For C68U U143C, the self-cleavage was 0.22. A69C A78G showed a self-cleavage of 0.1. A69C A121G gave a self-cleavage of 0.11. With A69C A121U the self-cleavage was 0.04. Variant A69C A141G has a self-cleavage of 0.07. Variant A69C A142C has a self-cleavage of 0.13. For A69C C76U, the self-cleavage was 0.08. Variant A69C C131A has a self-cleavage of 0.09. With A69C G83A the self-cleavage was 0.02. A69C G88A showed a self-cleavage of 0.01. For A69C U81C, the self-cleavage was 0. With A69C U85C the self-cleavage was 0.03. In the case of A69C U132A, the self-cleavage is reported as 0.2. In the case of A69C U132C, the self-cleavage is reported as 0. Variant A69C U134C has a self-cleavage of 0.03. For A69G A77C, the self-cleavage was 0.61. A69G A77G showed a self-cleavage of 0.6. A69G A77U showed a self-cleavage of 0.58. Work on A69G A78G yielded a self-cleavage of 0.25. A69G A79G gave a self-cleavage of 0.31. For A69G A92G, the self-cleavage was 0.23. A69G A92U showed a self-cleavage of 0.13. In the case of A69G A94G, the self-cleavage is reported as 0.14. A69G A94U gave a self-cleavage of 0.13. With A69G A107U the self-cleavage was 0. A69G A124U showed a self-cleavage of 0. A69G A129G showed a self-cleavage of 0.58. Variant A69G A136C has a self-cleavage of 0.49. With A69G C71U the self-cleavage was 0.1. In the case of A69G C76U, the self-cleavage is reported as 0.69. In the case of A69G C84G, the self-cleavage is reported as 0.06. With A69G C90A the self-cleavage was 0. With A69G C90U the self-cleavage was 0.07. With A69G C99G the self-cleavage was 0. Work on A69G C111U yielded a self-cleavage of 0.47. Work on A69G C113A yielded a self-cleavage of 0.48. Variant A69G C113U has a self-cleavage of 0.41. With A69G C120U the self-cleavage was 0.44. Work on A69G C123U yielded a self-cleavage of 0.45. A69G C128U gave a self-cleavage of 0.63. Variant A69G C145A has a self-cleavage of 0.71. Work on A69G C146A yielded a self-cleavage of 0.77. In the case of A69G G83A, the self-cleavage is reported as 0.18. In the case of A69G G83U, the self-cleavage is reported as 0.15. Variant A69G G89A has a self-cleavage of 0.03. With A69G G93U the self-cleavage was 0.01. In the case of A69G G97U, the self-cleavage is reported as 0.07. A69G G105A gave a self-cleavage of 0.62. For A69G G106A, the self-cleavage was 0.61. In the case of A69G G125A, the self-cleavage is reported as 0.72. In the case of A69G G144A, the self-cleavage is reported as 1.02. In the case of A69G U73A, the self-cleavage is reported as 0.28. In the case of A69G U81A, the self-cleavage is reported as 0.38. Work on A69G U81C yielded a self-cleavage of 0.54. Work on A69G U85A yielded a self-cleavage of 0.09. A69G U87A showed a self-cleavage of 0.03. In the case of A69G U87C, the self-cleavage is reported as 0.07. For A69G U87G, the self-cleavage was 0.48. A69G U91C gave a self-cleavage of 0. Variant A69G U100A has a self-cleavage of 0.17. In the case of A69G U100C, the self-cleavage is reported as 0.98. Work on A69G U108C yielded a self-cleavage of 0.68. With A69G U109C the self-cleavage was 0.29. A69G U119A showed a self-cleavage of 0.65. A69G U119C showed a self-cleavage of 0.64. Variant A69G U143A has a self-cleavage of 0.31. A69G U143C showed a self-cleavage of 0.5. A69U A77G gave a self-cleavage of 0.07. In the case of A69U A77U, the self-cleavage is reported as 0.06. In the case of A69U A79G, the self-cleavage is reported as 0.05. A69U A92G gave a self-cleavage of 0.03. Variant A69U A94G has a self-cleavage of 0.02. A69U A107G gave a self-cleavage of 0.08. For A69U A107U, the self-cleavage was 0.04. Work on A69U A117G yielded a self-cleavage of 0.08. A69U A124G showed a self-cleavage of 0.05. Variant A69U A124U has a self-cleavage of 0.09. In the case of A69U A129G, the self-cleavage is reported as 0.07. Work on A69U A129U yielded a self-cleavage of 0.06. In the case of A69U A138G, the self-cleavage is reported as 0.07. A69U A140G gave a self-cleavage of 0.04. Variant A69U A141U has a self-cleavage of 0.05. A69U A142G gave a self-cleavage of 0.06. In the case of A69U C71U, the self-cleavage is reported as 0.02. A69U C95A showed a self-cleavage of 0.02. Variant A69U C116A has a self-cleavage of 0.05. In the case of A69U C118U, the self-cleavage is reported as 0.01. A69U G80A showed a self-cleavage of 0.3. A69U G80U gave a self-cleavage of 0.03. In the case of A69U G82A, the self-cleavage is reported as 0.14. A69U G88A showed a self-cleavage of 0.01. Work on A69U G97C yielded a self-cleavage of 0. A69U G126A showed a self-cleavage of 0.05. Variant A69U U81A has a self-cleavage of 0.01. In the case of A69U U85C, the self-cleavage is reported as 0. In the case of A69U U91A, the self-cleavage is reported as 0.05. Work on A69U U91C yielded a self-cleavage of 0.06. A69U U96C showed a self-cleavage of 0.03. For A69U U102C, the self-cleavage was 0.06. Work on A69U U104C yielded a self-cleavage of 0.05. In the case of A69U U108C, the self-cleavage is reported as 0.06. Variant A69U U109C has a self-cleavage of 0.06. A69U U109G showed a self-cleavage of 0. For A69U U112A, the self-cleavage was 0.04. Work on A69U U112C yielded a self-cleavage of 0.06. Work on A69U U119A yielded a self-cleavage of 0.03. For A69U U119C, the self-cleavage was 0.06. A69U U130G gave a self-cleavage of 0.09. For A69U U143A, the self-cleavage was 0.04. Work on A69U U143C yielded a self-cleavage of 0.07. Variant G70A has a self-cleavage of 0.1. G70A A79G showed a self-cleavage of 0.1. Work on G70A A94G yielded a self-cleavage of 0.07. With G70A A136U the self-cleavage was 0.16. For G70A A138G, the self-cleavage was 0.21. G70A A141G gave a self-cleavage of 0.17. For G70A G80A, the self-cleavage was 0.48. G70A U100A showed a self-cleavage of 0.05. Work on G70A U115C yielded a self-cleavage of 0.16. For G70A U130A, the self-cleavage was 0.15. G70C gave a self-cleavage of 0.15. G70C A142G gave a self-cleavage of 0.14. Variant G70C C90A has a self-cleavage of 0.02. In the case of G70C G144A, the self-cleavage is reported as 0.15. G70C U102A showed a self-cleavage of 0.07. For G70C U108C, the self-cleavage was 0.29. G70U showed a self-cleavage of 0.05. In the case of G70U A92G, the self-cleavage is reported as 0.08. Variant G70U G97A has a self-cleavage of 0.01. Variant G70U U91C has a self-cleavage of 0.03. Work on G70U U102A yielded a self-cleavage of 0.11. For G70U U112A, the self-cleavage was 0.05. Work on G70U U112C yielded a self-cleavage of 0.06. Work on G70U U119A yielded a self-cleavage of 0.03. For G70U U119C, the self-cleavage was 0.07. Work on C71A A129G yielded a self-cleavage of 0.23. Work on C71A A138G yielded a self-cleavage of 0.33. Variant C71A C128U has a self-cleavage of 0.18. C71A C145U showed a self-cleavage of 0.18. Variant C71A G83U has a self-cleavage of 0.58. Work on C71A G122A yielded a self-cleavage of 0.12. In the case of C71A U108C, the self-cleavage is reported as 0.43. Variant C71A U115A has a self-cleavage of 0.16. With C71A U130A the self-cleavage was 0.17. In the case of C71A U132C, the self-cleavage is reported as 0.15.
